Reference: PMC4585734, “RBM45 homo-oligomerization mediates association with ALS-linked proteins and stress granules” (Scientific Reports, 2015)
Several values for one entry are separate records, joined by “and”; a condition that tells them apart may be missing. Identical values can stand only once.

What was measured:
[1] = biological target: the molecule itself; assay: cross-linking; in vivo DSS cross-linking (1 mM DSS for 10 minutes, room temperature, PBS) of HEK293 expressing HA-RBM45 constructs; SDS-PAGE and immunoblot
[2] = biological target: the molecule itself; assay: cross-linking; in vivo DSS cross-linking of live HEK293 stably expressing FLAG-RBM45, DSS 0 to 5000 uM; denaturing SDS-PAGE and immunoblot

Row | Protein | stoichiometry N [1] | stoichiometry N [2]
1 | truncated HA-RBM45 variant (107–474) that lacks RRM1 (domain or fragment, human, UniProt Q8IUH3-3 107-474, looked up, source: HEK293, transfected, in cells; not shown: 2xHA, N-terminal, kept) RSSGSHRDVEDEELTRIFVMIPKSYTEEDLREKFKVYGDIEYCSIIKNKVTGESKGLGYVRYLKPSQAAQAIENCDRSFRAILAEPKNKASESSEQDYYSNMRQEALGHEPRVNMFPFEQQSEFSSFDKNDSRGQEAISKRLSVVSRVPFTEEQLFSIFDIVPGLEYCEVQRDPYSNYGHGVVQYFNVASAIYAKYKLHGFQYPPGNRIGVSFIDDGSNATDLLRKMATQMVAAQLASMVWNNPSQQQFMQFGGSSGSQLPQIQTDVVLPSCKKKAPAETPVKERLFIVFNPHPLPLDVLEDIFCRFGNLIEVYLVSGKNVGYAKYADRISANDAIATLHGKILNGVRLKVMLADSPREESNKRQRTY | 5 | –
2 | HA-RBM45 deletion construct D1 (Δ212–216) (natural protein, human, UniProt Q8IUH3-3 1-474, looked up, also called HA-RBM45 D1 mutant; source: HEK293, transfected, in lysate or in cells; not shown: 2xHA, N-terminal, kept) MDEAGSSASGGGFRPGVDSLDEPPNSRIFLVISKYTPESVLRERFSPFGDIQDIWVVRDKHTKESKGIAFVKFARSSQACRAMEEMHGQCLGPNDTKPIKVFIAQSRSSGSHRDVEDEELTRIFVMIPKSYTEEDLREKFKVYGDIEYCSIIKNKVTGESKGLGYVRYLKPSQAAQAIENCDRSFRAILAEPKNKASESSEQDYYSNMRQEPRVNMFPFEQQSEFSSFDKNDSRGQEAISKRLSVVSRVPFTEEQLFSIFDIVPGLEYCEVQRDPYSNYGHGVVQYFNVASAIYAKYKLHGFQYPPGNRIGVSFIDDGSNATDLLRKMATQMVAAQLASMVWNNPSQQQFMQFGGSSGSQLPQIQTDVVLPSCKKKAPAETPVKERLFIVFNPHPLPLDVLEDIFCRFGNLIEVYLVSGKNVGYAKYADRISANDAIATLHGKILNGVRLKVMLADSPREESNKRQRTY | 5 | –
3 | HA-RBM45 deletion construct D2 (Δ230–234) (natural protein, human, UniProt Q8IUH3-3 1-474, looked up, source: HEK293, transfected, in lysate or in cells; not shown: 2xHA, N-terminal, kept) MDEAGSSASGGGFRPGVDSLDEPPNSRIFLVISKYTPESVLRERFSPFGDIQDIWVVRDKHTKESKGIAFVKFARSSQACRAMEEMHGQCLGPNDTKPIKVFIAQSRSSGSHRDVEDEELTRIFVMIPKSYTEEDLREKFKVYGDIEYCSIIKNKVTGESKGLGYVRYLKPSQAAQAIENCDRSFRAILAEPKNKASESSEQDYYSNMRQEALGHEPRVNMFPFEQQSEKNDSRGQEAISKRLSVVSRVPFTEEQLFSIFDIVPGLEYCEVQRDPYSNYGHGVVQYFNVASAIYAKYKLHGFQYPPGNRIGVSFIDDGSNATDLLRKMATQMVAAQLASMVWNNPSQQQFMQFGGSSGSQLPQIQTDVVLPSCKKKAPAETPVKERLFIVFNPHPLPLDVLEDIFCRFGNLIEVYLVSGKNVGYAKYADRISANDAIATLHGKILNGVRLKVMLADSPREESNKRQRTY | 5 | –
4 | FLAG-tagged RBM45 (full-length FLAG-RBM45) (natural protein, human, UniProt Q8IUH3-3 1-474, looked up, pcDNA3; band of 56.6 kD; also called 3xFLAG-RBM45; FLAG-RMB45; source: HEK293, transfected or stably expressing, in lysate or in cells; not shown: 3xFLAG, N-terminal, kept) MDEAGSSASGGGFRPGVDSLDEPPNSRIFLVISKYTPESVLRERFSPFGDIQDIWVVRDKHTKESKGIAFVKFARSSQACRAMEEMHGQCLGPNDTKPIKVFIAQSRSSGSHRDVEDEELTRIFVMIPKSYTEEDLREKFKVYGDIEYCSIIKNKVTGESKGLGYVRYLKPSQAAQAIENCDRSFRAILAEPKNKASESSEQDYYSNMRQEALGHEPRVNMFPFEQQSEFSSFDKNDSRGQEAISKRLSVVSRVPFTEEQLFSIFDIVPGLEYCEVQRDPYSNYGHGVVQYFNVASAIYAKYKLHGFQYPPGNRIGVSFIDDGSNATDLLRKMATQMVAAQLASMVWNNPSQQQFMQFGGSSGSQLPQIQTDVVLPSCKKKAPAETPVKERLFIVFNPHPLPLDVLEDIFCRFGNLIEVYLVSGKNVGYAKYADRISANDAIATLHGKILNGVRLKVMLADSPREESNKRQRTY | – | 2 and 5
5 | HA-RBM45 NLS M2/3 double mutant (natural protein, human, UniProt Q8IUH3-3 1-474, looked up, also called NLS-M2/3 mutant; HA-RBM45-NLS mutant; source: HEK293, transfected, in lysate or in cells; not shown: 2xHA, N-terminal, kept) MDEAGSSASGGGFRPGVDSLDEPPNSRIFLVISKYTPESVLRERFSPFGDIQDIWVVRDKHTKESKGIAFVKFARSSQACRAMEEMHGQCLGPNDTKPIKVFIAQSRSSGSHRDVEDEELTRIFVMIPKSYTEEDLREKFKVYGDIEYCSIIKNKVTGESKGLGYVRYLKPSQAAQAIENCDRSFRAILAEPKNKASESSEQDYYSNMRQEALGHEPRVNMFPFEQQSEFSSFDKNDSRGQEAISKRLSVVSRVPFTEEQLFSIFDIVPGLEYCEVQRDPYSNYGHGVVQYFNVASAIYAKYKLHGFQYPPGNRIGVSFIDDGSNATDLLRKMATQMVAAQLASMVWNNPSQQQFMQFGGSSGSQLPQIQTDVVLPSCKKKAPAETPVKERLFIVFNPHPLPLDVLEDIFCRFGNLIEVYLVSGKNVGYAKYADRISANDAIATLHGKILNGVALAVMLADSPAEESNAAQATY | 5 | –
6 | HA-tagged full-length RBM45 (natural protein, human, UniProt Q8IUH3-3 1-474, looked up, pcDNA3; also called HA-RBM45; HA-RBM45 wild-type; source: HEK293, transfected, in lysate or in cells; not shown: 2xHA, N-terminal, kept) MDEAGSSASGGGFRPGVDSLDEPPNSRIFLVISKYTPESVLRERFSPFGDIQDIWVVRDKHTKESKGIAFVKFARSSQACRAMEEMHGQCLGPNDTKPIKVFIAQSRSSGSHRDVEDEELTRIFVMIPKSYTEEDLREKFKVYGDIEYCSIIKNKVTGESKGLGYVRYLKPSQAAQAIENCDRSFRAILAEPKNKASESSEQDYYSNMRQEALGHEPRVNMFPFEQQSEFSSFDKNDSRGQEAISKRLSVVSRVPFTEEQLFSIFDIVPGLEYCEVQRDPYSNYGHGVVQYFNVASAIYAKYKLHGFQYPPGNRIGVSFIDDGSNATDLLRKMATQMVAAQLASMVWNNPSQQQFMQFGGSSGSQLPQIQTDVVLPSCKKKAPAETPVKERLFIVFNPHPLPLDVLEDIFCRFGNLIEVYLVSGKNVGYAKYADRISANDAIATLHGKILNGVRLKVMLADSPREESNKRQRTY | 5 and 10 | –
